Values quoted from earlier work in publication PMC4192513, “A Novel Protein-Protein Interaction in the RES (REtention and Splicing) Complex” (The Journal of Biological Chemistry, 2014).
Entries after “also recorded” stand apart in the source; their conditions may differ.

System: RES complex (Snu17p, Bud13p, Pml1p)
Details: ref [4]
Description: Previous biochemical analyses have shown that Snu17p binds Bud13p directly ([4], [6]). Based on a mutational analysis of the invariant Bud13p Trp^232 residue ([6]), the interaction of Bud13p with the Snu17p RRM has been proposed to resemble a typical UHM-ULM interaction. […] The structural findings are consistent with our initial mutagenesis analysis, which was guided by the recognition features described for the UHM family.

B1: W232A: single W232A mutant of Bud13p, from ref [4] (protein, UniProt P46947 1-266, looked up, variant W232A)
Pre-mRNA-splicing factor CWC26: MALHQYLSETYGPTKPKNKTKKKKKESKSDANSDKTSLIVKERLSTLQQEQEKSGVASFSKFDKQKSKNIWKNLETNELSHAITHPSASSITGNESKNDLKEIRAQEPLVTVADKSKTRKTIYRDAQGHKIQEDSKIDDSSFSRSKYEDEKAAEREQYLKNLNMGDVQKLGINVDAHDKKKNQTASSLTIEDPAITFTHDKERTVKTSLLGRKLYDKPAPENRFAIMPGSRADGVHRSNGFEEKWFAKQNEINEKKVQSYTLQEDY
- interaction with Snu17p / complex formation of W232A mutant: did not abolish its interaction with Snu17p; also recorded: did not prevent complex formation
